One assay deals with T1, BSA (bovine, UniProt P02769 25-607).
T1 construct: also called bovine serum albumin
Kind of assay: ELISA. The method, boiled down: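 Fab from E. coli TG1 lysates bound to plates coated with human TFPI, or with mouse TFPI for cross-reactivity, with BSA and lysozyme as negative controls. Detection by HRP-anti-human Fab with AmplexRed/H2O2; signal ≥5-fold over background scored positive.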

Assay [1] addresses T2, mouse tissue factor pathway inhibitor (TFPI) (mouse, UniProt O54819 29-289, limits assumed).
T2 construct: Bought protein; also called mouse TFPI; mTFPI
T2 sequence (looked up): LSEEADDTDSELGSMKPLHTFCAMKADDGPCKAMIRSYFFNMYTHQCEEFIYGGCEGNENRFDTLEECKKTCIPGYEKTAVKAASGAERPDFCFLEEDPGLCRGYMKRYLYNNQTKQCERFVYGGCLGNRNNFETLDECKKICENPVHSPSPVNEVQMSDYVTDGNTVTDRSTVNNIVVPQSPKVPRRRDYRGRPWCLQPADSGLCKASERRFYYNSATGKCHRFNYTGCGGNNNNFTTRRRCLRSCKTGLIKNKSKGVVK
Put plainly: ELISA, Fab on coated TFPI. In short, it runs like this:
(§1)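 Purified Fabs titrated on human or mouse TFPI-coated plates; bound Fab detected with HRP anti-human Fab and AmplexRed/H2O2 to derive EC50. Affinity and kinetics by Biacore: TFPI amine-coupled on CM5 (~300 RU), Fabs in mobile phase at 0.1, 0.4, 1.6, 6.4 and 25 nM.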

Assay [2] deals with T3, human tissue factor pathway inhibitor (TFPI) (human, UniProt P10646 29-304, limits assumed).
T3 construct: Bought protein; also called human TFPI; hTFPI
T3 sequence (looked up): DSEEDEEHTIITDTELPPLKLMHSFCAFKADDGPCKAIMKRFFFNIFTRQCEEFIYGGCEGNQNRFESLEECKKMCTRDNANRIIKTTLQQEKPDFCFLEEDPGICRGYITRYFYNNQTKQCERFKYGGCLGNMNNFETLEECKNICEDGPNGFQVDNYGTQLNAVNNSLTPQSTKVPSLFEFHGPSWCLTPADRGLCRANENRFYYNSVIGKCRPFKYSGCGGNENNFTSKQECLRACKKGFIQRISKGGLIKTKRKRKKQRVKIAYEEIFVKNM
Put plainly: ELISA, Fab on coated TFPI. The method, boiled down:
as §1

Assay [3] concerns the target T3, human tissue factor pathway inhibitor …. Put plainly: cell-based or functional assay.
The target in assay [4] is T2, mouse tissue factor pathway inhibitor …. Put plainly: Biacore, TFPI on CM5 chip, Fab in mobile phase. In short, it runs like this:
(§2)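 Surface plasmon resonance with human or mouse TFPI amine-coupled to a CM5 chip at approximately 300 RU. Purified Fabs were injected in mobile phase at 0.1, 0.4, 1.6, 6.4 and 25 nM. Kinetics and binding affinity were derived from the sensorgrams.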

For assay [5], the target named is T3, human tissue factor pathway inhibitor …. Put plainly: Biacore, TFPI on CM5 chip, Fab in mobile phase. The method, boiled down: as §2
A further assay deals with T4, human TFPI K1 (human, UniProt P10646 29-107, limits assumed).
T4 construct: domain: K1; also called Kunitz domain 1
T4 sequence (looked up): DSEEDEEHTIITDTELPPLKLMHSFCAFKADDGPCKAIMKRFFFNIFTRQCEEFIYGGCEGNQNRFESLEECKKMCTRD
Kind of assay: Western blots and ELISA. As to the method:
Western blots and ELISA were used to determine which domain(s) of TFPI of the inhibitory antibodies bind. Recombinant full length human TFPI or TFPI domains were used for these studies. ELISA was similar to Example 3. In the Western Blot, human TFPI or domains were run on 4-12% Bis-Tris SDS PAGE running buffer MES (Invitrogen, Carlsbad, Calif.) and then transferred to cellulose membrane. After incubation with inhibitory antibodies for 10 min, the membrane was washed three times using SNAPid system (Millipore, Billerica, Mass.). A HRP conjugated donkey anti-mouse antibody (Pierce, Rockford, Ill.) at 1 to 10,000 dilution was incubated with the membrane for 10 min. After a similar wash step, the membrane was developed using SuperSignal substrate (Pierce, Rockford, Ill.). Whereas the control anti-Kunitz domain 1 antibody binds to full length TFPI, truncated TFPI and domains, inhibitory anti-TFPI antibodies only bind to TFPI containing Kunitz domain 2.

T1 sequence (P02769 25-607 limits assumed): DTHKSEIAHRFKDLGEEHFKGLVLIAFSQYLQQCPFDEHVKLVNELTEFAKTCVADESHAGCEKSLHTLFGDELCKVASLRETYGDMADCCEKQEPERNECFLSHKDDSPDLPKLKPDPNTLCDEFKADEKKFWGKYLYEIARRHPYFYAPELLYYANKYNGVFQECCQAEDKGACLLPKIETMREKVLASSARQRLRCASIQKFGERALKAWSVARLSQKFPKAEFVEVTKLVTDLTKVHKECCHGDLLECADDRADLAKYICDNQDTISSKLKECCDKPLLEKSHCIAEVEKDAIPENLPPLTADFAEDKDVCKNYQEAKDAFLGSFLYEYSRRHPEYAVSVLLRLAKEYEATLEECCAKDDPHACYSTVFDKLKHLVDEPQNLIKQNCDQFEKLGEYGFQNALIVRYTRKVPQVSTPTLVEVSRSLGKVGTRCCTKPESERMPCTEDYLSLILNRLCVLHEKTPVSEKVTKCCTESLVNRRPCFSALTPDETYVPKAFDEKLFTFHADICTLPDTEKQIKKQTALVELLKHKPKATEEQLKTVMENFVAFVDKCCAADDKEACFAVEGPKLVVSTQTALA

B1: TP-3G1 Fab (Fab, V domains shown)
VH: QVQLQQSGPGLVKPSQTLSLTCAISGDSVSSNSGGWGWIRQSPGRGLEWLGLIYYRSKWYNAYAVSVKSRITINPDTSKNQFSLQLNSVTPEDTAVYYCARYLGSNFYVYSDVWGQGTLVTVSS
VL: DIQMTQSPSSLSASVGDRVTITCRASQGISSYLHWYQQKPGKAPKLLIYGASTLQSGVPSRFSGSGSGTDFTLTISSLQPEDFATYYCQQQNGYPFTFGQGTKVEIKR
notes: Human Fab from HuCal Gold, expressed in E. coli TG1
On to B1, for which the binding result in the assay with BSA is “no binding”. In addition, the EC50 in assay [1] came out at 8.68 nM; in assay [2], 74.4 nM. In assay [3], the “% inhibition of hTFPI activity” value came to 93%. The “dPT in hemoA plasma” value in assay [3] came out at 75.1 s. In addition, the dissociation constant Kd was 49.1 nM in assay [4] and 1140 nM in assay [5].

B2: TP-3G1 chimeric IgG (antibody, V domains shown)
VH: QVQLQQSGPGLVKPSQTLSLTCAISGDSVSSNSGGWGWIRQSPGRGLEWLGLIYYRSKWYNAYAVSVKSRITINPDTSKNQFSLQLNSVTPEDTAVYYCARYLGSNFYVYSDVWGQGTLVTVSS
VL: DIQMTQSPSSLSASVGDRVTITCRASQGISSYLHWYQQKPGKAPKLLIYGASTLQSGVPSRFSGSGSGTDFTLTISSLQPEDFATYYCQQQNGYPFTFGQGTKVEIKR
notes: Chimeric IgG: human variable regions on mouse constant regions, murine IgG1 isotype, made in HKB11 cells
With B2, in the assay with human TFPI K1, the binding result is recorded as “no binding”.

B3: TP-3C2 chimeric IgG (antibody, V domains shown)
VH: QVQLQQSGPGLVKPSQTLSLTCAISGDSVSSSSAAWSWIRQSPGRGLEWLGMIYYRSKWYNHYAVSVKSRITINPDTSKNQFSLQLNSVTPEDTAVYYCARGGSGVMDVWGQGTLVTVSS
VL: DIQMTQSPSSLSASVGDRVTITCRASQSITNYLNWYQQKPGKAPKLLIYDVSNLQSGVPSRFSGSGSGTDFTLTISSLQPEDFAVYYCQQYSGYPLTFGQGTKVEIKR
notes: as for B2
B3: in the assay with human TFPI K1, the binding result is “no binding”.

B4: TP-4B7 chimeric IgG (antibody, V domains shown)
VH: QVQLQQSGPGLVKPSQTLSLTCAISGDSVSSNSAAWSWIRQSPGRGLEWLGIIYKRSKWYNDYAVSVKSRITINPDTSKNQFSLQLNSVTPEDTAVYYCARWHSDKHWGFDYWGQGTLVTVSS
VL: DIVMTQSPLSLPVTPGEPASISCRSSQSLVFSDGNTYLNWYLQKPGQSPQLLIYKGSNRASGVPDRFSGSGSGTDFTLKISRVEAEDVGVYYCQQYDSYPLTFGQGTKVEIKR
notes: as for B2
For B4, the binding result with human TFPI K1 was “no binding”.

B5: TP-2B3 chimeric IgG (antibody, V domains shown)
VH: QVQLQQSGPGLVKPSQTLSLTCAISGDSVSSNSAAWGWIRQSPGRGLEWLGMIYYRSKWYNSYAVSVKSRITINPDTSKNQFSLQLNSVTPEDTAVYYCARTMSKYGGPGMDVWGQGTLVTVSS
VL: DIVLTQSPATLSLSPGERATLSCRASQNIGSNYLAWYQQKPGQAPRLLIYGASTRATGVPARFNGSGSGTDFTLTISSLEPEDFAVYYCQQLNSIPVTFGQGTKVEIKR
notes: as for B2
B5: the binding result in the assay with human TFPI K1 is “no binding”.

B6: TP-2A8-IgG (antibody, V domains shown)
VH: QVQLVESGGGLVQPGGSLRLSCAASGFTFRSYGMSWVRQAPGKGLEWVSSIRGSSSSTYYADSVKGRFTISRDNSKNTLYLQMNSLRAEDTAVYYCARKYRYWFDYWGQGTLVTVSS
VL: DIELTQPPSVSVAPGQTARISCSGDNLRNYYAHWYQQKPGQAPVVVIYYDNNRPSGIPERFSGSNSGNTATLTISGTQAEDEADYYCQSWDDGVPVFGGGTKLTVLG
notes: as for B2
For B6, in the assay with human TFPI K1, the binding result was “no binding”.

Source of the values: patent publication US20120269817A1 (Bayer, published 2012).
